Laboratory results published in patent US20180256687A1.
Like-named read-outs stand apart in the source and are kept apart here.

Key:
[1] = molecular target: JAK2 (Janus protein-tyrosine kinase 2) (human) (UniProt O60674)
[2] = molecular target: JAK2 (Janus protein-tyrosine kinase 2) (human) (UniProt O60674); assay: negative-control pull-down on nickel gel; lysate of resting human monocytes; mean of 3 experiments
[3] = molecular target: Protein tyrosine phosphatase receptor type gamma (PTPRG) (human) (UniProt P23470); assay: cell-based or functional assay
[4] = molecular target: PTP Receptor type C (PTPRC or CD45) (human) (UniProt P08575); assay: cell-based or functional assay
Chain of PTP Receptor type C (PTPRC or CD45) (human) (P08575 26-1306 limits assumed): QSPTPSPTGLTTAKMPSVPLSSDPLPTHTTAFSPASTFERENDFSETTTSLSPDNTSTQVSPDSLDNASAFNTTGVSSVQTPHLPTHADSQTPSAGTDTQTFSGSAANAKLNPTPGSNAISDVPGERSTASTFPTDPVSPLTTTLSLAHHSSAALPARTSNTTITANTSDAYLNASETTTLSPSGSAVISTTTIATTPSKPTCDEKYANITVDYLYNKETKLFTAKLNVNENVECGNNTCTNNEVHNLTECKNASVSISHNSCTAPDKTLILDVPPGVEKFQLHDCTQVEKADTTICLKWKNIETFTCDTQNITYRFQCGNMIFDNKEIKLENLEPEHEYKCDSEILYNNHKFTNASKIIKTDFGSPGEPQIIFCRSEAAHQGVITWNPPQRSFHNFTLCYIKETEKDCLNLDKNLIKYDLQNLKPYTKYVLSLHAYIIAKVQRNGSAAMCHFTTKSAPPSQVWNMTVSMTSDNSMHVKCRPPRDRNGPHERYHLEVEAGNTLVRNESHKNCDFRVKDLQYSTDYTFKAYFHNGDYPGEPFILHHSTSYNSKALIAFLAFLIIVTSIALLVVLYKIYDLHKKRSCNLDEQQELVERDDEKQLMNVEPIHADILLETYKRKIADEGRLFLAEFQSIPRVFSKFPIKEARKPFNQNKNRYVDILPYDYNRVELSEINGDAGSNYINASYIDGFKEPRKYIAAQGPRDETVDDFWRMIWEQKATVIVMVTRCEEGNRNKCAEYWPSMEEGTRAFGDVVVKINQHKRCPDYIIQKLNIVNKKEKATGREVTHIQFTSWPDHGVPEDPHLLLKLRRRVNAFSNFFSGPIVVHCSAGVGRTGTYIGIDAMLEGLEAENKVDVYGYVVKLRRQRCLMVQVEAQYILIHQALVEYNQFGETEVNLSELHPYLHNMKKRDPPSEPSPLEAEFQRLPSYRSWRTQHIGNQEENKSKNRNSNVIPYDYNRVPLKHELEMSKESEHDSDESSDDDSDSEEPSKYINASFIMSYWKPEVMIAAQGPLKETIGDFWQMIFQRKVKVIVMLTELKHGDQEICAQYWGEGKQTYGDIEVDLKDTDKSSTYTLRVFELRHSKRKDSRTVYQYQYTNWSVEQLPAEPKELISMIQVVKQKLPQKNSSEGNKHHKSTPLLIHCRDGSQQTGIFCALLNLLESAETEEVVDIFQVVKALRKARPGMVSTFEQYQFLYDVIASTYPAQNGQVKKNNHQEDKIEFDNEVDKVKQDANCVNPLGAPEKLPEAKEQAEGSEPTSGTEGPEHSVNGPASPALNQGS

TAT-eGFP
JAK2 band (anti-JAK2 Western blot of pull-down), mean [1]: 1.5 | JAK2 band (anti-JAK2 Western blot of pull-down), mean [2]: 4.4

P1 (Penetratin 1) control peptide
phosphatase activity (pNPP, absorbance at 405 nm, percent fold increase over the blank) in monocyte membrane fractions, P1 control (percent fold increase over the blank) [3]: 16

P1-WD Trojan peptide (Penetratin fused to the PTPRG wedge domain)
phosphatase activity (pNPP, absorbance at 405 nm, percent fold increase over the blank) in monocyte membrane fractions, P1-WD 50 micromolar (percent fold increase over the blank) [3]: 34.6 | phosphatase activity (pNPP, absorbance at 405 nm, percent fold increase over the blank) in monocyte membrane fractions, P1-WD 100 micromolar (percent fold increase over the blank) [3]: 86.7 | phosphatase activity (pNPP, absorbance at 405 nm, percent fold increase over the blank) in monocyte membrane fractions, P1-WD 200 micromolar (percent fold increase over the blank) [3]: 109 | phosphatase activity (pNPP, absorbance at 405 nm, percent fold increase over the blank) in PMN membrane fractions, P1-WD 50 micromolar (percent fold increase over the blank) [4]: 5.15 | phosphatase activity (pNPP, absorbance at 405 nm, percent fold increase over the blank) in PMN membrane fractions, P1-WD 100 micromolar (percent fold increase over the blank) [4]: 8.54 | phosphatase activity (pNPP, absorbance at 405 nm, percent fold increase over the blank) in PMN membrane fractions, P1-WD 200 micromolar (percent fold increase over the blank) [4]: 12.9
